Laboratory results taken from article PMC7112440.
Read-outs that look alike come from different tables or passages of the source.

Experiments:
[1] = target: human norovirus HuNoV (GII.4), virus from a positive stool sample (human norovirus GII.4); assay: BLI
[2] = target: human norovirus HuNoV (GII.4), virus from a positive stool sample (human norovirus GII.4); assay: SPR
[3] = target: viral hemorrhagic septicemia virus (VHSV) genotype IVa; assay: SPR
[4] = target: concanavalin A (Con A) isolated from Canavalia ensiformis (Jack bean) (Canavalia ensiformis); assay: capture on a column of Con A-immobilised polyacrylate beads
[5] = target: concanavalin A (Con A) isolated from Canavalia ensiformis (Jack bean) (Canavalia ensiformis); assay: as above; remark: listed apart in the source

Substance	virus recovery (%) [4] [%]	also measured
concanavalin A (Con A) isolated from Canavalia ensiformis (Jack bean) (natural protein)	–	association, fold over the commercial HuNoV antibody [1]: 10 fold; Kd [2]: 71.5 nM; Kd [3]: 710 nM
human norovirus HuNoV (GII.4), virus from a positive stool sample (complex)	90.6	HuNoV recovery (%) from lettuce [5]: 89.5%; HuNoV recovery (%) from milk [5]: 60.8%; HuNoV recovery (%) from strawberry [5]: 70.8%; virus recovery (%) [5]: > 90%
human norovirus HuNoV GII.6, virus from a positive stool sample (complex)	41.8	–
human norovirus HuNoV GI.8, virus from a positive stool sample (complex)	56.2	–
human norovirus HuNoV GII.17, virus from a positive stool sample (complex)	61.4	–
human norovirus HuNoV GI.3, virus from a positive stool sample (complex)	68.5	–
human norovirus HuNoV GII.8, virus from a positive stool sample (complex)	77.8	–
human norovirus HuNoV GII.2, virus from a positive stool sample (complex)	85.2	–
